Columns and labels:
[1] = target: human IL-8 type A receptor (IL8R-A), encoded by clone pRK5B.il8r1.1 (human); assay: competition of 125I-IL-8 by unlabelled IL-8 on COS cells transfected with pRK5B.il8r1.1, Scatchard analysis
human neutrophils = assay: competition of 125I-IL-8 by unlabelled IL-8 on human neutrophils, Scatchard analysis

For “recombinant human IL-8 (72 amino acid form, made in E. coli) (from UniProt P10145) (ligand)”, the Kd [1] was 3.6 nM and the Kd (human neutrophils) was 1.1 nM.
